Source: patent US12006356 (JUNO THERAPEUTICS, dated 2024)

Tests used:
[1] = target: T1, murine CCT5 (mouse, UniProt P80316 2-541); assay: immunoprecipitation and Western blot, B16-F10 cells
T1 construct: Endogenous CCT5 in B16-F10 melanoma cells; also called mouse CCT5

[2] = target: T2, human CCT5 (human, UniProt P48643 2-541, limits assumed); assay: immunoprecipitation from cytosolic and plasma membrane lysate fractions, Western blot for CCT5
T2 construct: also called Chaperonin Containing TCP1 Subunit 5; TRiC protein CCT5
Source text: Cytosolic and plasma membrane (surface) lysate preparations of SK-BR-3 and OvCar3 cells were probed by Western blot for CCT5 after immunoprecipitation with the antibody identified Example 1, or a negative control antibody, Panitumumab.

[3] = target: RalGapa2 (UniProt Q2PPJ7 1-1873, limits assumed); assay: immunoprecipitation from OvCar8, SKBR3 and MIAPACA2 lysates, Western blot with rabbit polyclonal antibodies
Procedure: (§1) A. Immunoprecipitation and Mass Spectrometry to Identify Candidate Target Proteins Whole cell lysates of exemplary ovarian or leukemia cell lines were used for immunoprecipitation experiments with the antibody identified in Example 1. The identified antibody was covalently conjugated to magnetic epoxy beads, and 10 µg of bead-bound antibody were incubated with 1-2 mL whole cell lysate (at 1 mg protein/mL lysate) of ovarian carcinoma cell line (OvCar8) or acute myeloid leukemia cell line (SKM1). The cell lysates were also incubated with control antibodies known to bind the cell line, or beads alone. The immunoprecipitates were then washed and eluted first with low pH, and second with a cationic detergent elution buffer. The eluates were resolved by SDS-PAGE and stained with a protein stain to visualize the bands.
(§2) The immunoprecipitation with the identified antibody was repeated, with OvCar8 cells and also SKBR3 (breast cancer) and MIAPACA2 (pancreas carcinoma) cell lines. The eluates were resolved by SDS-PAGE, transferred for Western blot analysis using rabbit polyclonal antibodies specific to the top 10 candidate proteins identified in part A: RalGapa2, RalGapB, SPTAN1, IMPDH2, DNAJC13, SPTAN1, SNRNP200, PRPF8, CCT4, and CCT2. CCT2 and CCT4 were specifically detected in the immunoprecipitates from all assessed cancer cell lines. No bands corresponding to the other proteins were detected. CCT2 and CCT4 are both part of the TCP1 ring complex (TRiC).

[4] = target: T3, RalGapB (UniProt Q86X10 1-1494, limits assumed); assay: as above
T3 sequence (looked up): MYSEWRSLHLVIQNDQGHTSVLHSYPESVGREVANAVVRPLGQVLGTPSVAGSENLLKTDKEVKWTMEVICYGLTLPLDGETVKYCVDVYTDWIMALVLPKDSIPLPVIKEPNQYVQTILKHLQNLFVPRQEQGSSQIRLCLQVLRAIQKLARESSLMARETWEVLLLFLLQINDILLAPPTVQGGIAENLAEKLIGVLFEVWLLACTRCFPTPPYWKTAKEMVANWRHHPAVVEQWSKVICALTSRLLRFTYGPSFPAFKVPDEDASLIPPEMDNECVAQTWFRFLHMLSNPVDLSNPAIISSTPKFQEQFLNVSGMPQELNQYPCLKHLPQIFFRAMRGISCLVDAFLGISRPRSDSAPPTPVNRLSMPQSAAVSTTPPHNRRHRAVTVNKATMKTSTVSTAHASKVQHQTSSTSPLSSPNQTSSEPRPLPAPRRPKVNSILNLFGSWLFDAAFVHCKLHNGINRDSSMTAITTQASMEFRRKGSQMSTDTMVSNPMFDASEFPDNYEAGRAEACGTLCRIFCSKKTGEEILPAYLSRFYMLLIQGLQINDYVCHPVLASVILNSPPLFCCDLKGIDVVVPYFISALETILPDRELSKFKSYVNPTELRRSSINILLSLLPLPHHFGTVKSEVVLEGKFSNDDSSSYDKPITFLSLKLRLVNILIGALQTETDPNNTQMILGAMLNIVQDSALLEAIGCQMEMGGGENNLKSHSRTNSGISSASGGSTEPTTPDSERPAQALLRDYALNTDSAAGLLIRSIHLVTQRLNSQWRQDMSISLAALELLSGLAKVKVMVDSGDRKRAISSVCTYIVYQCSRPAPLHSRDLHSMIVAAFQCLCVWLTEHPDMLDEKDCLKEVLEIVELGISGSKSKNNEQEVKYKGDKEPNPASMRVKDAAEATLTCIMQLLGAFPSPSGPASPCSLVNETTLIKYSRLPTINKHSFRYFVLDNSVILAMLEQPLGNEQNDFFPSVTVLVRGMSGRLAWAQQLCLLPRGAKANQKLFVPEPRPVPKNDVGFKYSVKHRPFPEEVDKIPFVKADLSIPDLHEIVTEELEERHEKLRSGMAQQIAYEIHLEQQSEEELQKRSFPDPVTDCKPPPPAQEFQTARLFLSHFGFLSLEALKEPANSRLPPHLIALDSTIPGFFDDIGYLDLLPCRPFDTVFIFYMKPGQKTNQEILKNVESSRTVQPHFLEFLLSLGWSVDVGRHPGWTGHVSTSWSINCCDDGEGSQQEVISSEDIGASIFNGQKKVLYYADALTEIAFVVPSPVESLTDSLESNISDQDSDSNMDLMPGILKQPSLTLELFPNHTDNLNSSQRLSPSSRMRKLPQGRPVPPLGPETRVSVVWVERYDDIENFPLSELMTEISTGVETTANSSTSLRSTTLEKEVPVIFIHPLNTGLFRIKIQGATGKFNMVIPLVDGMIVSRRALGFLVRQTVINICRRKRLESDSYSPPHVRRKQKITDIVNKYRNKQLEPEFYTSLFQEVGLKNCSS
Procedure: as §1, §2

[5] = target: SPTAN1 (UniProt Q13813 1-2472, limits assumed); assay: as above
Procedure: as §1, §2

[6] = target: DNAJC13 (UniProt O75165 1-2243); assay: as above
Procedure: as §1, §2

[7] = target: SNRNP200 (UniProt O75643 1-2136, limits assumed); assay: as above
Procedure: as §1, §2

[8] = target: PRPF8 (UniProt Q6P2Q9 2-2335); assay: as above
Procedure: as §1, §2

RalGapa2, sequence (Q2PPJ7 whole entry): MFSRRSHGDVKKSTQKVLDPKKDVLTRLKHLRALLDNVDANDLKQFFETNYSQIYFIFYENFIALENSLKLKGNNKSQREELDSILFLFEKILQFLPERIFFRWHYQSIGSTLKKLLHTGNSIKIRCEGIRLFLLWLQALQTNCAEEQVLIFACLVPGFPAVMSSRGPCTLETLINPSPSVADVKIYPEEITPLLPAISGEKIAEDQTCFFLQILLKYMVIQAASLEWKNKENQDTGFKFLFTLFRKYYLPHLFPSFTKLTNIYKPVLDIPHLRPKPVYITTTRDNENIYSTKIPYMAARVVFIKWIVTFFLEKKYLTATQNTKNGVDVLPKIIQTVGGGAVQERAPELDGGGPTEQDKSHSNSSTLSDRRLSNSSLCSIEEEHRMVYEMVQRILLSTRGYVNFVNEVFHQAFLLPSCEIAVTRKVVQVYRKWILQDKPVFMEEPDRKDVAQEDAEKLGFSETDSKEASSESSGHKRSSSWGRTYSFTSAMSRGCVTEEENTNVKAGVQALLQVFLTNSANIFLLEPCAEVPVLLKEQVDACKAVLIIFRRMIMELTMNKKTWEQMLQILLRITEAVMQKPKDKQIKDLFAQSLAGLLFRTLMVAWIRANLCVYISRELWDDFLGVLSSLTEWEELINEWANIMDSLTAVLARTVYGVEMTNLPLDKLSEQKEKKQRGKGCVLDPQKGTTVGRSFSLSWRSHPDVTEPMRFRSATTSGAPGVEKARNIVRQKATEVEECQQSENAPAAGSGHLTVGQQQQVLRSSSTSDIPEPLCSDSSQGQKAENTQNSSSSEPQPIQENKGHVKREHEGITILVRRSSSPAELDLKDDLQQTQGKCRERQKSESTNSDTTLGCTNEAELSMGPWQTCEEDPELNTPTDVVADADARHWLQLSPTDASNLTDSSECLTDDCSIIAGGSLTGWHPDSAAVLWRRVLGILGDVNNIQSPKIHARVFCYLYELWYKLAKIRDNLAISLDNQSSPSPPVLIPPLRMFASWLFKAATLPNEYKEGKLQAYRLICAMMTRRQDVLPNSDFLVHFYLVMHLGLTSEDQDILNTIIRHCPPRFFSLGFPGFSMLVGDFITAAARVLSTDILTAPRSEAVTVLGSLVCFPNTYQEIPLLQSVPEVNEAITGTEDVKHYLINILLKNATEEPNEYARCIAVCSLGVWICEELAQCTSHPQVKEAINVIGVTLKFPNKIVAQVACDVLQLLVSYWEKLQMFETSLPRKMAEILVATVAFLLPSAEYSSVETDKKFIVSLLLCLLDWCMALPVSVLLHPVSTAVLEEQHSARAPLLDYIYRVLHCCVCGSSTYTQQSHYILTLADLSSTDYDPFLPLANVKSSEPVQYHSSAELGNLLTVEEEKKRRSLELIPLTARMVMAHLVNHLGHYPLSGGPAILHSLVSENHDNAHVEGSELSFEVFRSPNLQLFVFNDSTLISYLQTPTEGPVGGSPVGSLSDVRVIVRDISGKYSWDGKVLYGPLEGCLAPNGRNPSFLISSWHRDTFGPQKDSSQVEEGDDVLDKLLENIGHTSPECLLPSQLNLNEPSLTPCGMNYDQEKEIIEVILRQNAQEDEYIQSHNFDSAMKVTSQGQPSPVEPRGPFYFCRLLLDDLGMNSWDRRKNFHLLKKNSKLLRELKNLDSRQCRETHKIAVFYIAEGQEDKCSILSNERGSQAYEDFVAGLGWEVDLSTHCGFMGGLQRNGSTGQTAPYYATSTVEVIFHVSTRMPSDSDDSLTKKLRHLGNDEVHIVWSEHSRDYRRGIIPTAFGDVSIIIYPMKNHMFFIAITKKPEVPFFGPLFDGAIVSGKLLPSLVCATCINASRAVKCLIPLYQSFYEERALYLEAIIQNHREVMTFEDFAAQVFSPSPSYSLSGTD
T1 sequence (P80316 2-541 limits assumed): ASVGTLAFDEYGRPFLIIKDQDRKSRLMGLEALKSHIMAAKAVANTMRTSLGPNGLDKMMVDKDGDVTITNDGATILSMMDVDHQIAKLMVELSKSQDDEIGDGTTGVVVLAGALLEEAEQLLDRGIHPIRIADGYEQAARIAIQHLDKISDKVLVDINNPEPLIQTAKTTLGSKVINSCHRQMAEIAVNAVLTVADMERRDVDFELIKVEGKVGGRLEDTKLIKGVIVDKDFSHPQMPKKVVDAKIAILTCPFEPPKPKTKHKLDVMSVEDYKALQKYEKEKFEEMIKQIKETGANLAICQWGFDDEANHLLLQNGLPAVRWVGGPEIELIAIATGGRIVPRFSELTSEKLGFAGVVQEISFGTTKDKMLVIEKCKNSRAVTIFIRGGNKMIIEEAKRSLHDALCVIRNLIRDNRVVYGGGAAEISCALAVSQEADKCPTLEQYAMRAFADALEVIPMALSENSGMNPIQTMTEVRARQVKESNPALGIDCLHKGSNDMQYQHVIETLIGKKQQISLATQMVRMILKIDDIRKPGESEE
T2 sequence (P48643 2-541 limits assumed): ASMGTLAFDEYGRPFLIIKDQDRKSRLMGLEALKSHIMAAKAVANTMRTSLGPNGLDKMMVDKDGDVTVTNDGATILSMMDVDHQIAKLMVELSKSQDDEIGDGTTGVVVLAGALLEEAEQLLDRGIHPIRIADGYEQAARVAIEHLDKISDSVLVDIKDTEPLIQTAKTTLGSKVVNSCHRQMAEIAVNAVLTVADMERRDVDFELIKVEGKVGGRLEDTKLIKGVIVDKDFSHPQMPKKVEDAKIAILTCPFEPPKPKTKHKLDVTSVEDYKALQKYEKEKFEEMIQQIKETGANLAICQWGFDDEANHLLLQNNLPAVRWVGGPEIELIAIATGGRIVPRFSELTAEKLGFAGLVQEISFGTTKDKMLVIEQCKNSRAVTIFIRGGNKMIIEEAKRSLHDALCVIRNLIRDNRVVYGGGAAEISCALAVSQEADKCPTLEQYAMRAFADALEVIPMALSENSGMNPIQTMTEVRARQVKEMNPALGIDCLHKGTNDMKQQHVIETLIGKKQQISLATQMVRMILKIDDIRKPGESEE
SNRNP200, sequence (O75643 whole entry): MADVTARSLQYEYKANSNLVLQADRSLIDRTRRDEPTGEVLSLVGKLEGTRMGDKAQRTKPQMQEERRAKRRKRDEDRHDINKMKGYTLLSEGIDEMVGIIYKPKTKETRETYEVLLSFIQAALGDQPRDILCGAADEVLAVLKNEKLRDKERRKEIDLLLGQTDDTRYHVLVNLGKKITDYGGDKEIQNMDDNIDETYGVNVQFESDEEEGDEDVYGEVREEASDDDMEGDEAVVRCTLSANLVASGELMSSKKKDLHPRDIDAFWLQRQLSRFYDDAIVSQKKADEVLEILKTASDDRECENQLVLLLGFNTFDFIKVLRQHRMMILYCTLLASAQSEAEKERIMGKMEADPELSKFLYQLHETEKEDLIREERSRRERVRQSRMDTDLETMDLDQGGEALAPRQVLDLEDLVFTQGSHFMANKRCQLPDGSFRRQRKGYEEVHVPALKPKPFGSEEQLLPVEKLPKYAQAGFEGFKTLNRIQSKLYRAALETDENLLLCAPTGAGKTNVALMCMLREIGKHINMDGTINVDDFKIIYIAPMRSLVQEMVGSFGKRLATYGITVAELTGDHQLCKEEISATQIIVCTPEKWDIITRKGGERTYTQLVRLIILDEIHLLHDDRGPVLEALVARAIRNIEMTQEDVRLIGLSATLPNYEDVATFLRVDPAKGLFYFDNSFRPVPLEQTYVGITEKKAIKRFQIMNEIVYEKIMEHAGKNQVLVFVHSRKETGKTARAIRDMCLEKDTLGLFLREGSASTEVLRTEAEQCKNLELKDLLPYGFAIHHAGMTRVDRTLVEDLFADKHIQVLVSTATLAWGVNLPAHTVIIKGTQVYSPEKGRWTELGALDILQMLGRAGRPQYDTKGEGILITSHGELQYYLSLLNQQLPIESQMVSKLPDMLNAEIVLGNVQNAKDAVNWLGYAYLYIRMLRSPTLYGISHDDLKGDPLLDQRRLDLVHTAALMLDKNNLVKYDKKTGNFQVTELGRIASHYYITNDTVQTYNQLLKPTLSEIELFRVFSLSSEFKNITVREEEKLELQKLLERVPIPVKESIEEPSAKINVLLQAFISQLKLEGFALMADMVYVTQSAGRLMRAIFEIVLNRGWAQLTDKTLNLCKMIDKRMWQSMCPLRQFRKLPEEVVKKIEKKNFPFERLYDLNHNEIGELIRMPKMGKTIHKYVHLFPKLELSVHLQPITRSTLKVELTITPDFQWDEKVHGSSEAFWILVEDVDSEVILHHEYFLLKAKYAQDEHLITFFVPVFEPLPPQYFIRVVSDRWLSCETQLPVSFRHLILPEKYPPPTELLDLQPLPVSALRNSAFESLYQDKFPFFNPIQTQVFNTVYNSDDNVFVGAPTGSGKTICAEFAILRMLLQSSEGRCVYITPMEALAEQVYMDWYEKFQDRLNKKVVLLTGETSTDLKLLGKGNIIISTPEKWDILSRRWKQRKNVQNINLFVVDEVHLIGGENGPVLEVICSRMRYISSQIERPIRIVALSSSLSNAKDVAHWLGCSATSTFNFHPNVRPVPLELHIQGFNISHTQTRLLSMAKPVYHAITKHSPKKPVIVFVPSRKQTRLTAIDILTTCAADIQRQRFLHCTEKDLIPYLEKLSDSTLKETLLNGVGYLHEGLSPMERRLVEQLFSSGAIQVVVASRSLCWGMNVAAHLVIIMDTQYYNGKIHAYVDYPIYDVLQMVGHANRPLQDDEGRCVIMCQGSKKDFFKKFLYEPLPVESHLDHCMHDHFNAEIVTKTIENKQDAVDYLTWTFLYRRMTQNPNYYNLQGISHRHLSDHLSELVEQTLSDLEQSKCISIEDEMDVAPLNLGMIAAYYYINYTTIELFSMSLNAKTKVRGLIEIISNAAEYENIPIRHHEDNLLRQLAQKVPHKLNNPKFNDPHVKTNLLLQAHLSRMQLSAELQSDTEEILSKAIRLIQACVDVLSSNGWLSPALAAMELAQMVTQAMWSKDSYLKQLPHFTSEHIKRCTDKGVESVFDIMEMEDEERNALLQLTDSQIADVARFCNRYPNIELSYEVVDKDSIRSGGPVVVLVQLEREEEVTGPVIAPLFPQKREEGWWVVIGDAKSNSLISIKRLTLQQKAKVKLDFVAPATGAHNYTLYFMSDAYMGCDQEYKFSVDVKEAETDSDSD

B1: exemplary anti-CCT5 antibody identified in Example 1 (antibody, V domains shown)
VH: EVQLVESGGGLVQPGGSLRLSCAASGFTFSSYSMNWVRQAPGKGLEWVSYISSSSSTIYYADSVKGRFTISRDNAKNSLYLQMNSLRDEDTAVYYCARDFKGDCSSTSCYRGGYYYYYGMDVWGQGTTVTVSS
VL: SYELTQPPSVSVSPGQTASITCFGDQLGDKYVSWYQKKPGQSPVLVIYQDANRPSGIPERFSGSNSGNTATLTIRGTQNLDEADYYCQTWGTTTALFGGGTKLTVL
notes: For immunoprecipitation it was covalently conjugated to magnetic epoxy beads; also called the identified antibody
[1]
  binding result: binds
[2]
  binding result: binds
[3]
  binding result: no binding
[4]
  binding result: no binding
[5]
  binding result: no binding
[6]
  binding result: no binding
[7]
  binding result: no binding
[8]
  binding result: no binding
